The source of these data is US20210395344A1 (TWIST BIOSCIENCE, published 2021).

Holding throughout (assay): phage ELISA
Assay [1] has as its target T1, SARS-CoV-2 S1 (subunit 1) protein (SARS-CoV-2, UniProt P0DTC2 16-685).
T1 construct: also called biotinylated SARS-CoV-2 S1

Assay [2] concerns the target T2, COVID S1 RBM Fc fusion (Antigen 2) (SARS-CoV-2, UniProt P0DTC2 437-508).
T2 construct: domain: RBM

Assay [3] has as its target T3, COVID S1 RBD Fc fusion (Antigen 1) (SARS-CoV-2, UniProt P0DTC2 319-541).
T3 construct: domain: RBD

The next assay has as its target S1-Fc (SARS-CoV-2, UniProt P0DTC2 16-685).

B1: SARS-CoV-2 variant 1-10 (antibody, V domains shown)
VH: EVQLLESGGGLVQPGGSLRLSCAASGFTFSSYDMSWVRQAPGKGLEWVSVISGSGGSTYYADSVKGRFTISRDNSKNTLYLQMNSLRAEDTAVYYCAKGPLVGWYFDLWGQGTLVTVSS
VL: QSALTQPASVSGSPGQSITISCTGTSSNVGSYNLVSWYQQHPGKAPKLMIYEGTKRPSGVSNRFSGSKSGNTASLTISGLQAEDEADYYCCSYAGSSSFVVFGGGTKLTVL
With B1, the “screening ELISA (Avg), fold over background” value (from here on “screening ELISA (Avg), fold”) in assay [1] is 16.9 fold over background. Further, in assay [2], the “specificity ELISA, fold over background” value worked out at 1.1 fold over background and the “specificity ELISA, percent binding relative to Acro S1” value was determined as 6.2%. For the same molecule, in assay [3], the “specificity ELISA, fold over background” value amounted to 17.4 fold over background and the “specificity ELISA, percent binding relative to Acro S1” value is 100%.

B2: SARS-CoV-2 variant 1-8 (antibody, V domains shown)
VH: EVQLLESGGGLVQPGGSLRLSCAASGFTFSSYDMSWVRQAPGKGLEWVSVISGSGGSTYYADSVKGRFTISRDNSKNTLYLQMNSLRAEDTAVYYCAKGPLVGWYFDLWGQGTLVTVSS
VL: QSALTQPASVSGSPGQSITISCTGTSNDVGSYNLVSWYQQHPGKAPKLMIYEGSKRPSGVSNRFSGSKSGNTASLTISGLQAEDEADYYCCSYAGSRYVVFGGGTKLTVL
Regarding B2, the “screening ELISA (Avg), fold” value in assay [1] came out at 19.3 fold over background. Also, in assay [2], the “specificity ELISA, fold over background” value was determined as 1.2 fold over background and the “specificity ELISA, percent binding relative to Acro S1” value was determined as 10.3%. In assay [3], the “specificity ELISA, fold over background” value is 11.2 fold over background and the “specificity ELISA, percent binding relative to Acro S1” value came to 92.9%.

B3: SARS-CoV-2 variant 1-27 (antibody, V domains shown)
VH: EVQLLESGGGLVQPGGSLRLSCAASGFTFSSYAMTWVRQAPGKGLEWVSAISGSGGGTYYADSVKGRFTISRDNSKNTLYLQMNSLRAEDTAVYYCASSSSWQFDYWGQGTLVTVSS
VL: QSALTQPASVSGSPGQSITISCTGTSSYVGHYNLVSWYQQHPGKAPKLMIYEGSRRPSGVSNRFSGSKSGNTASLTISGLQAEDEADYYCCSYAGSYTHYVFGGGTKLTVL
On to B3, for which the “screening ELISA (Avg), fold” value in assay [1] is 27.2 fold over background. For the same molecule, in the assay with S1-Fc, the “specificity ELISA, fold over background” value amounted to 1.3 fold over background and the “specificity ELISA, percent binding relative to Acro S1” value is 84.8%. For the same molecule, in assay [2], the “specificity ELISA, fold over background” value was 1.6 fold over background and the “specificity ELISA, percent binding relative to Acro S1” value was determined as 109%.

B4: SARS-CoV-2 variant 1-33 (antibody, V domains shown)
VH: EVQLLESGGGLVQPGGSLRLSCAASGFTFSSYAMIWVRQAPGKGLEWVSAISGSGGSTFYADSVKGRFTISRDNSKNTLYLQMNSLRAEDTAVYYCTRPPYGDYGDYWGQGTLVTVSS
VL: QSALTQPASVSGSPGQSITISCTGTSSDVGSYNLLSWYQQHPGKAPKLMIYEASKRPSGVSNRFSGSKSGNTASLTISGLQAEDEADYYCCSYAGSRTPVVFGGGTKLTVL
With B4, the “screening ELISA (Avg), fold” value in assay [1] was determined as 17.6 fold over background. In addition, in the assay with S1-Fc, the “specificity ELISA, fold over background” value stood at 3 fold over background and the “specificity ELISA, percent binding relative to Acro S1” value worked out at 42.1%. In addition, in assay [2], the “specificity ELISA, fold over background” value was 1 fold over background and the “specificity ELISA, percent binding relative to Acro S1” value was 14.6%.

B5: SARS-CoV-2 variant 1-9 (antibody, V domains shown)
VH: EVQLLESGGGLVQPGGSLRLSCAASGFTFSSYDMSWVRQAPGKGLEWVSVISGSGGSTYYADSVKGRFTISRDNSKNTLYLQMNSLRAEDTAVYYCAKGPLVGWYFDLWGQGTLVTVSS
VL: QSALTQPASVSGSPGQSITISCTGTSSDVGDYNLVSWYQQHPGKAPKLMIYEGSNRPSGVSNRFSGSKSGNTASLTISGLQAEDEADYYCCSYAGSSSFVVFGGGTKLTVL
For B5, the “screening ELISA (Avg), fold” value in assay [1] amounted to 18.5 fold over background. For the same molecule, in assay [2], the “specificity ELISA, fold over background” value came out at 1 fold over background and the “specificity ELISA, percent binding relative to Acro S1” value is 9.3%. Also, in assay [3], the “specificity ELISA, fold over background” value came to 9.8 fold over background and the “specificity ELISA, percent binding relative to Acro S1” value was determined as 91.1%.

B6: SARS-CoV-2 variant 1-31 (antibody, V domains shown)
VH: EVQLLESGGGLVQPGGSLRLSCAASGFTFSSYAMNWVRQAPGKGLEWVSAISGSGGSTFYADSVKGRFTISRDNSKNTLYLQMNSLRAEDTAVYYCTRPPYGDYGDYWGQGTLVTVSS
VL: QSALTQPASVSGSPGQSITISCTGTSSDVGKYNLVSWYQQHPGKAPKLMIYEGSQRPSGVSNRFSGSKSGNTASLTISGLQAEDEADYYCCSYAGSRTPVVFGGGTKLTVL
Consider B6, for which the “screening ELISA (Avg), fold” value in assay [1] came out at 20.7 fold over background. In addition, the “specificity ELISA, fold over background” value with S1-Fc came to 15.7 fold over background; in assay [2], 1.2 fold over background. The entries for the “specificity ELISA, percent binding relative to Acro S1” value (with S1-Fc; in assay [2]) were 51.6% and 3.8%, respectively.

B7: SARS-CoV-2 variant 1-28 (antibody, V domains shown)
VH: EVQLLESGGGLVQPGGSLRLSCAASGFTFSSYGMSWVRQAPGKGLEWVSAISGSGGGTYYADSVKGRFTISRDNSKNTLYLQMNSLRAEDTAVYYCASSSSWQFDYWGQGTLVTVSS
VL: QSALTQPASVSGSPGQSITISCTGTSSGVGSYNLVSWYQQHPGKAPKLMIYEGSQRPSGVSNRFSGSKSGNTASLTISGLQAEDEADYYCCSYAGSSTHYVFGGGTKLTVL
As for B7, in assay [1], the “screening ELISA (Avg), fold” value was 17.7 fold over background. For the same molecule, in the assay with S1-Fc, the “specificity ELISA, fold over background” value amounted to 1.1 fold over background and the “specificity ELISA, percent binding relative to Acro S1” value came to 110%. Further, in assay [2], the “specificity ELISA, fold over background” value is 1.2 fold over background and the “specificity ELISA, percent binding relative to Acro S1” value came out at 124%.

B8: SARS-CoV-2 variant 1-7 (antibody, V domains shown)
VH: EVQLLESGGGLVQPGGSLRLSCAASGFTFSSYDMSWVRQAPGKGLEWVSVISGSGGSTYYADSVKGRFTISRDNSKNTLYLQMNSLRAEDTAVYYCAKGPLVGWYFDLWGQGTLVTVSS
VL: QSALTQPASVSGSPGQSITISCTGTSSDFGSYNLVSWYQQHPGKAPKLMIYEGNKRPSGVSNRFSGSKSGNTASLTISGLQAEDEADYYCCSYAGSSTFVVFGGGTKLTVL
Regarding B8, the “screening ELISA (Avg), fold” value in assay [1] turned out to be 22.5 fold over background. In assay [2], the “specificity ELISA, fold over background” value worked out at 1.6 fold over background and the “specificity ELISA, percent binding relative to Acro S1” value was 23%. In assay [3], the “specificity ELISA, fold over background” value amounted to 3.3 fold over background and the “specificity ELISA, percent binding relative to Acro S1” value was found to be 48.7%.

B9: SARS-CoV-2 variant 1-42 (antibody, V domains shown)
VH: EVQLLESGGGLVQPGGSLRLSCAASGVTFSSYAMSWVRQAPGKGLEWVSAITGSGGSTYYADSVKGRFTISRDNSKNTLYLQMNSLRAEDTAVYYCAKHGSGTIFGVVIAKYYFDYWGQGTLVTVSS
VL: QSALTQPASVSGSPGQSITISCTGTSSDVGRYNLVSWYQQHPGKAPKLMIYEGGKRPSGVSNRFSGSKSGNTASLTISGLQAEDEADYYCCSYASSSTLVFGGGTKLTVL
Take B9: in assay [1], the “screening ELISA (Avg), fold” value amounted to 34.5 fold over background. Besides, the entries for the “specificity ELISA, fold over background” value in assay [2] and in assay [3] were 1 fold over background and 20.8 fold over background, respectively. In addition, the “specificity ELISA, percent binding relative to Acro S1” value in assay [2] is 4.2%; in assay [3] it was 91.4%.

B10: SARS-CoV-2 variant 1-29 (antibody, V domains shown)
VH: EVQLLESGGGLVQPGGSLRLSCAASGFTFSSYAMYWVRQAPGKGLEWVSAISGSAGSTYYADSVKGRFTISRDNSKNTLYLQMNSLRAEDTAVYYCARDTNDFWSGYSIFDPWGQGTLVTVSS
VL: QSALTQPASVSGSPGQSITISCTGTSSDIGSYNLVSWYQQHPGKAPKLMIYEGTKRPSGVSNRFSGSKSGNTASLTISGLQAEDEADYYCCSYAGSRTYVFGGGTKLTVL
Turning to B10, in assay [1], the “screening ELISA (Avg), fold” value worked out at 23.8 fold over background. For the same molecule, the “specificity ELISA, fold over background” value with S1-Fc is 1 fold over background; in assay [2] it was 0.9 fold over background. Moreover, the “specificity ELISA, percent binding relative to Acro S1” value worked out at 94% with S1-Fc and 78.3% in assay [2].

B11: SARS-CoV-2 variant 1-22 (antibody, V domains shown)
VH: EVQLLESGGGLVQPGGSLRLSCAASGFTFSSYAMNWVRQAPGKGLEWVSIISGSGGSTYYADSVKGRFTISRDNSKNTLYLQMNSLRAEDTAVYYCAREGYRDYLWYFDLWGQGTLVTVSS
VL: QSALTQPASVSGSPGQSITISCTGTSTDVGSYNLVSWYQQHPGKAPKLMIYEGSQRPSGVSNRFSGSKSGNTASLTISGLQAEDEADYYCCSYAGSSTVFGGGTKLTVL
Regarding B11, the “screening ELISA (Avg), fold” value in assay [1] is 40.6 fold over background. In addition, in assay [2], the “specificity ELISA, fold over background” value was 1.5 fold over background and the “specificity ELISA, percent binding relative to Acro S1” value was 4.7%. Moreover, in assay [3], the “specificity ELISA, fold over background” value came to 26.5 fold over background and the “specificity ELISA, percent binding relative to Acro S1” value turned out to be 81.2%.

B12: SARS-CoV-2 variant 1-24 (antibody, V domains shown)
VH: EVQLLESGGGLVQPGGSLRLSCAASGFTFSSYAMNWVRQAPGKGLEWVSIISGSGGSTYYADSVKGRFTISRDNSKNTLYLQMNSLRAEDTAVYYCAREGYRDYLWYFDLWGQGTLVTVSS
VL: QSALTQPASVSGSPGQSITISCTGTSSDVGYYNLVSWYQQHPGKAPKLMIYEGNKRPSGVSNRFSGSKSGNTASLTISGLQAEDEADYYCCSYAGGSVVFGGGTKLTVL
Consider B12, for which, in assay [1], the “screening ELISA (Avg), fold” value worked out at 32.9 fold over background. Besides, the “specificity ELISA, fold over background” value in assay [2] came out at 1.3 fold over background; in assay [3], 11 fold over background. In addition, the “specificity ELISA, percent binding relative to Acro S1” value was found to be 10.3% in assay [2] and 85.4% in assay [3].

B13: SARS-CoV-2 variant 1-32 (antibody, V domains shown)
VH: EVQLLESGGGLVQPGGSLRLSCAASGFTFSSYAMYWVRQAPGKGLEWVSAISGSGGSTFYADSVKGRFTISRDNSKNTLYLQMNSLRAEDTAVYYCTRPPYGDYGDYWGQGTLVTVSS
VL: QSALTQPASVSGSPGQSITISCTGTSSDVGGYNLVSWYQQHPGKAPKLMIYEGNKRPSGVSNRFSGSKSGNTASLTISGLQAEDEADYYCCSYAGSSTFPVVFGGGTKLTVL
In the case of B13, the “screening ELISA (Avg), fold” value in assay [1] turned out to be 17.9 fold over background. In the assay with S1-Fc, the “specificity ELISA, fold over background” value turned out to be 4 fold over background and the “specificity ELISA, percent binding relative to Acro S1” value was determined as 35.3%. Also, in assay [2], the “specificity ELISA, fold over background” value worked out at 1.1 fold over background and the “specificity ELISA, percent binding relative to Acro S1” value stood at 9.5%.
